Measurements as given in patent US20210246194A1.

Biological target: HIV-1 JRFL gp140 Recombinant protein (HIV-1 JRFL)
Assay: Attana Cell A200 QCM; IgG captured on anti-human IgG Fc; gp140 at 25, 50 and 100 nM; 1:1 fit

B1: 7B2 IgG (antibody, V domains shown)
VH: QVQLVQSGGGVFKPGGSLRLSCEASGFTFTEYYMTWVRQAPGKGLEWLAYISKNGEYSKYSPSSNGRFTISRDNAKNSVFLQLDRLSADDTAVYYCARADGLTYFSELLQYIFDLWGQGARVTVSS
VL: DIVMTQSPDSLAVSPGERATIHCKSSQTLLYSSNNRHSIAWYQQRPGQPPKLLLYWASMRLSGVPDRFSGSGSGTDFTLTINNLQAEDVAIYYCHQYSSHPPTFGHGTRVEIK
Kd: 2.9 nM

B2: 7B2GL IgG (antibody, V domains shown)
VH: QVQLVESGGGLVKPGGSLRLSCAASGFTFSEYYMTWIRQAPGKGLEWVSYISKNGEYSKYSPSSNGRFTISRDNAKNSLYLQMNSLRAEDTAVYYCARADGLTYFSELLQYIFDLWGQGTLVTVSS
VL: DIVMTQSPDSLAVSLGERATINCKSSQTLLYSSNNRHSIAWYQQKPGQPPKLLIYWASMRLSGVPDRFSGSGSGTDFTLTISSLQAEDVAVYYCHQYSSHPPTFGQGTKVEIK
Kd: 2.9 nM
